Assay: label from the status in PepcDB records

For “MTVNVENVEPELNIEIGPNWFASVMGTGIIANAAVGLPMVGQYLGQAGLVIWVIASLMLIVMLLLKAVQTITNPHIIKRQFNDPVMAQFFGAPPMALLTIAGGTLLFGHHFFAQDTLMVIAWSLWITGTIVGMMTAVIIPYRLFTHHEVRGDAAFGGWLMPVVPPMVSAAIGAMFIPHVQDTLLQQTLLYACYAMFGTSLIAAMIILTLIWGRLVHSGTSGGARVPTLWLVLGPLGQSITAAGALGAVALAVVEQPIAGSLNTMAILYGVPVWGFAFYWSILASFLTLRALRRKMPFALTWWAFTFPVGTCVTGTTQLALHTGLPAFEWAAVILFAGLLCAWVIAALGTIKGIKTGHIMKNPVSSPVIIAKKGPR”, the protein production was “failed”.

For “MKLNISAQSLNYTKYDNVIPSRDAILGLFDKVKSYLSYEQISHSSGLNDEPEKDALKKRLRAMERDGQLIFTRRKGYKRVDQSSLVTGKISIHVDGFGFLTYDDNEKDLFLPKHQLSHVFDGDIILVLKGHTQHQGRSNHRFIKIVERKTTHIVGLLKRKGSKLYLLPENSKLTQTIYVTPNELIAKNVGKLVHCKINTYPDYRQPTTVEVNEVLGRPGEAGIEVKLALRRHGINDKWDKDVLDAASAFGSQVEEKDKTSRVDYRDLPFVTIDGDDAKDFDDAVYGYQMDNGQWKLFVAIADVSHYVKPNDHLDLEAQSRATSVYFPGCVVPMLPESLSNGLCSLNPNEDRLVMVCEMTFDDEGNMLDSEFSEGIIHSHARLTYDDANRIIMQSSAKTTYQSNNPKNNIAQYLVNLHRLYLNLSGQRKVRGAIDFDTQELAFKLNNKKKIASIVPVVRNDAHRMIEEFMLCANVATAQFLELNKIPSLYRVHSGPQMKKLTSLRMLLAEKGLTLAGGDKPTSHDYNALLDQVRDLDECDIIRTLLLRSQSQAEYSPKNLGHFGLAYDAYAHFTSPIRRYPDLLIHRAIRAKLREKTTGKLRSLLMKLKPIRQLAGISNSYPYDTKEIEQLSVHCSHQSRQADEVSREVESALKCHYMKPFIGRNFMGSVSGVTHFGVFVELEENRIEGLIPLSSFQNGDFEFDAIKQKISSQTTTFTLGTQVNIIVKEIDSKQRKIIFNFA”, the protein production was “failed”.

In the case of “KKSKYMTPMQQKLNEVYEAVKNYTDKRGRRLSAIFLRLPSRSELPDYYLTIKKPMDMEKIRSHMMANKYQDIDSMVEDFVMMFNNACTYNEPESLIYKDALVLHKVLLETRRD”, the protein production is reported as “not failed”.

In the case of “MKKSLLMLLLSAATLSSIEAQTIQQMKAGGPWPVRAAFKTDTVGMNGSKYNPADLLRQAYDATDKDLRNVSADKDGRIAGRKAGSKAERSEMAVYSFALTAEHFAKGDIEVFGQGRMSLWLDDKQIGIADSPNSKGDTTLRFSASLSLVPGTHHLLLKSLLLEGDTTATDVRVVLKPKTARDSSALYPNYTGKERLSLKHMMSGTFLSGGSLSPTGKYVLTSYRVSRDNKPAVTYNQLRDAKGNILLNLNEKEALGWMPHEDMLMVIRKEGNAKRLVAFDPMGKGEKTLVSNLPESQFRMSPDARYYLFYKQEKGPGKDPLFIRHLDPDDRQSDWRDRSQIYLLNAESGVYGPLTFGYSTTYIYDIAPDSKRALIGTLSTDWTRRPFRFATIMEYNMETGKADTLITRDPSIDAIQYTPDGKHLIVMGSADAFGNIGLNLKSGVTPNSYDKQFFLFDLSTRKATALTKNFNPSVSAGRFDRKNNYYYFRAENGSRKQLYRLDLKTLEISQIQTGEDVVQWFGVAADNGAVWYSGQSANNADRLYRLDGTKGKLVWDLSAEKLANIDFTPARDWNYTAPDGTVVEGWYYLPPQFDPSKKYPMLVYYYGGTSPINRTLEGHYSLAMYAAQGYVVYTLNPSGTTGYGQEYAARHVNAWGDRTADEIIGATKEFIRTHSFVNGKKVGCFGASYGGFMTQYLQTKTDIFAAAVSHAGISSISNYWGSGYWGMGYSTVASTDSYPWNNPDLYAGHSPLFRADKIHTPLLLLHGSVDTNVPTAESVNLYNALKILGREVEFIEFTEQDHFILEPERRIRWTNSICAWFARWLQDDPTWWNELYPPVNL”, the protein production is reported as “failed”.

With “MSGDYRITLEELRYISVFHSITGVTAYRCIVDEENNRLIFLVSEGEAGRAIGRGGRLIKLLREALGKNIEVVEYSSDLERIVKNLFPGVKIESINVRERNGVKQVVIKVSEDDKGAAIGKGGKNVKRARLVLSKLFGVEKVVIR” the protein production was “not failed”.

For “MALVRSLFVSNKILGGSLAGMRKSTSAPKGFLAVYVGESQKKQRYLVLVSYLSQPLFQDLLSKSEEEFGFDHPMGGLTIPCPEDTFLTVTSRIQG”, the protein production was “failed”.

With “MAVDVPGIISPKTAEAASQLTDGIGGRAYLNSNGAILVTKIQLPSSTQVSNGTAYIYSGFSGGTESDIGFQYSDKYNVWKPYMKVGSKGQDQVQYLEGGSQFTNTKGFRPGSTVQLTIYKNLNGNTRATYWGTNNAGYNGRLISEISKTNVGSISKWKALATVATTGSRQSIKSNFSTSFTNITIDNKAITPVIDTQDFAKVTVSGNSVSLSVVKNLEHHHHHH” the protein production was “not failed”.

For “MASKSQKKVLKKQNKKKKKDPLAPKRALSAYMFYVKDKRLEIIKEKPELAKDVAQVGKLIGEAWGQLSPAQKAPYEKKAQLDKVRYSKEIEEYRKKNQE”, the protein production was “failed”.

For “MTRSVWLKADSEVGDWETRKRRITAGIEAGVDWVLVDEEDVDRVSELGEINIAAFTNGDVHVMEAEAEDSEADATIVGKDGEGDGTVDLPSDFSGSADLSTLRQNGAAPDGGYVRIFDEDYEAFAEAVAAEADFTIVIGENWQIIPLENLIARVGEETDLIAGVRTAEDARTAYETLELGADGVLLDTDEVDEIRKTVEVRDEMGRESLDLEYAEVTAIEQTGSADRVCIDTGSLMEHDEGMLVGSMARGLFFVHAETAESPYVASRPFRVNAGAVHAYVRTPDGGTKYLSELQSGDEVQIVDANGRTREAIVGRAKIEKRPMFRVQAETEDSDRIETLLQNAETIKVHTQDGRTAVTDLEPGDEILIHHEDTATHFGERIEESIIEK”, the protein production was “failed”.

With “MKKNIRLLTHNEIPRVWEIDRTELIERLYVLQQGQLVLSEQRFDMKGWPEGEAEHYTPVLLESAERGAPFWGVFEDDKLVAATSVDPQWRGQDNTLLQLSFLHISHQQRGQGLARILFDYCVEYAKQKGASGLYISSTPSENSVNFYQHMGCRLIDVPDTELYEREPEDIHLVLNFNKED” the protein production was “failed”.

With “MSTRPERERASTSTDAVLQATVALSAGHKPAFRGFVKDPPRARAHAAAMFVSNAREAEPFVAPDLSEIRVLVDRATVGVASVSLAHATVAAGAETVWHRLQATDEIYFVLSGRGLVSVGDESGEVGPGDAVWIPAGVPQKIRALGSVPLTFLCAWGPAYLPERDQRMGEAAVIGAWPLEHHHHHH” the protein production was “not failed”.

In the case of “SWNQAPKLHYCLDYDCQKAELFVTRLEAVTSNHDGGCDCYVQGSVANRTGSVEAQTALKKRQLHTTWEEGLVLPLAEEELPTATLTLTLRTCDRFSRHSVAGELRLGLDGTSVPLGAAQWGELKT”, the protein production is reported as “not failed”.

For “MADSKSFTFELNESVLTAQVGRLDEMAMVVEQRFSELKMTIEDVGNADPGSKISESLGGLQSGLGTISSAFGQLGSSSEAITSGFGTAVGSVGGITDAFKNLGSSVQNGTLFSSLATGIGGMSTMLGGVSGGVQGITNLASGFMELKNHLGGLMSSIGGVGGIMGKLTSPMGLVIIGIVALVAAFAYLMTTNESFRNTVMSVVTQVAQLFGQLVASLMPIIMQIVTAVMQIGAALMPMVMQFISFFAQLLAQLMPFINMLISMLMPVIMQIVQVVMSLVSALLPSIMTVIQGIMSVIQFLIPIIMQIATVVVQIVVTIISYISKIMPIVMTIIGVIVSIITTIISYVVIIATTIASVIGKIISFIASVITAVIGIVQPIIAFITNIFTTIVTIIGAAFQMVFTVASKIWNSIMSTISGIIDGIKAVITGISTTVSSVFNGVKRIITGVFDGIKSAWGGLTDFVGNIFDGVSSAIQTVVDNVKGFVNVVIRGINGAIGLINKIPGVEIGKIPQLISGTTNFQGGFARMNEGGRGEMVVLPSGSQVIPHDATMKYARESARGNKSMLYTSQGADLARVENLLERLLQKNPVIKMDDKVVAEVVSRNQANSFDQYNYTMGGAAYS”, the protein production was “not failed”.

For “MSSRLARFALSGYRIAGIAAYPFARPYLSYRAAKGKEDKRRRLERFGYASAERPRGPLVWFHAASVGETLALIPLIREIRKRDIFVLLTTGTVTSAELTRTRLGDDVIHQYVPLDIKIAVNRFLTYWAPDAAITAESEIWPVTMMELERRHIPQIRVNARLSDRSFDRWKARHDIAESLFSKLALVVAQSDLDAERFRDLGSWPVVISGNLKGDTDPPPCDEALLESYRKQVGNRKTWAAISTFDGEEKAAATVHAAIKSRNGQLTIIVPRHPERGDDVEAMLKGMNLSVARRSRNDVITPGTDIFLGDSIGEMGLYLRLTELAFVGRSLTAEGGQNPLEPAMLGCAVLSGAHVQNFREAYQKLIRAGGGRIIRDVEMLAKAVHYLLVNDNERYKMIDAGNRVIQDMRGALSSTVKALEPYINPLTVSAKLQPRSAIGSWLEHHHHHH”, the protein production was “failed”.

With “RVLEFHPLGSGLAMTEFVVGSRLMGKTLSDLALCKVEGVQVLGFKRGPEIIKAPDMSTTLEIGDLIIVVGPQDKLANKLKSL” the protein production was “failed”.

In the case of “MLQYGQKSFLIVDDFTDFRTSTRSMLRELGVRDVDTADSGEQALRMCAQKRYDFILQDFHLGDGKKNGQQVLEDLIIDKHISHECVFIMVTAESSQAIVLSAIEHEPDAYLTKPFNRVGLAQRVEKLFQRKTLLKPILQALDRNRPAEVLAACAELCKKDPRLAPLCLRYRADALRNLNRFEELEKFLKAILASRPQPWVYAALGALMHKRGQNAQAQGVYEQALKAFPIMPGLYDGMAEVLVAQGDTRRAQNLLEEAVRLSPLSVRRQSTLGKLALENEDFESASKAFRHAVNQGQSSRYKDAENNLGLVQALMSKNAGFGLDARTRVEINTTLSEVAKENPEDQGLQVRARMMKAASLQQAGDPETAGKLTEQAIQRLDKMNQFFSVDSALTVAAQLQAMGQEAAAIGVLKNCVESYGDDPKVMEKVGKLTDDPSVLNAITEAVTLNRQGVRSYQGGQLGEALQLFRKALGLQPKNISIALNTAQALLRIGGDNPQPAIMQECRDALTSVAGIPASDNRYDRYRKLHIRVFGA”, the protein production is reported as “failed”.

For “PPVIRQGPVNQTVAVDGTFVLSCVATGSPVPTILWRKDGVLVSTQDSRIKQLENGVLQIRYAKLGDTGRYTCIASTPSGEATWSAYIEVQEFGVPVQPPRPTDPNLIPSAP”, the protein production was “not failed”.

In the case of “MEYSTDLGRRVLLTLAGVALLLVVGLVLSQFLPTLVFTVFLYYASRPIYRRLGRLPLPKSFLKRAVPYQKQVHAAATIFFFLLPFVVLVGYTLVLVIPELQSFFGEGGLGAAYLSQFQELQGGSPPGPLADLGFSEVLAMGPAEVIDLLRNATVQSWLGRVSDTLIGSLSLLTSLLLRVFIMFAGTYYLLTDGPRLVGWFLDTFDGSGVLREYAAAVDEELSSILFGNILNALVTGVIGIFVFSLYNLVAPGSVQIPFAPLVGALTGIGSLIPVVGMKIVYLPVAVLLAVSAVVTGQTAALAWVALFLVVTLVVVDTIPDFLIRPYVSGDLTHVGLLMFAYILGPIAFGFYGIFLGPMLLVLAAQFFRIIVPYIITGTVETTQTSLSEYDSGES”, the protein production is reported as “failed”.

For “MELKNVKDAFDRVTKKQKLCYSKTHEVVDKMSQEIDKALKTIQEDNHESVVADLKKTFEEIAPINLLEASQKEINGVLTKYPKALDKTLNPDISTAYRNVKFDTHTVHQILAQFFYRQGMYDVGDCFISETGEVKPESSVTKAFMEMNMILEAMKERDLGPALKWVASNSDKLKEAKSDLELKLHSLHFLEIAKDKTSEEAINYARKHFATYSADSCCFPEIQKLMCSLLWIRNLNKSPYSEFLSPVLWTNAAKELTRQYCILLGESPESPLSVTVAAGSQVLPTFLKYLNVLPEKRKEWQTMEQLLVPVELSEEYRFYSVFVCPVSKEHSSEDNPPMRLACGHVLCKQSINRMSRNGSRSFKCPYCPTDIDASQCKQLYF”, the protein production was “failed”.

In the case of “MKIEHVALWTTNLEQMKQFYVTYFGATANDLYENKTKGFNSYFLSFEDGARLEIMSRTDVTGKTTGENLGWAHIAISTGTKEAVDELTEKLRQDGFAIAGEPRMTGDGYYESVVLDPEGNRIEITW”, the protein production is reported as “not failed”.
